Consider 1 molecule from paper PMC6917717, “YtfK activates the stringent response by triggering the alarmone synthetase SpoT in Escherichia coli” (Nature Communications, 2019).

The assay concerns the target T1, SpoT catalytic domains (SpoT^1-378) (E. coli, UniProt P0AG24 1-378).
T1 construct: SpoT, E. coli, residues 1-378 (catalytic domains: hydrolase and synthetase); no cleavage is described; also called SpoT^1–378-6His; recombinant SpoT^1–378
The experiment in a line: BLI; biotinylated YtfK (2.5 µM) on streptavidin biosensors; SpoT1-378 (5-80 µM) or RelA1-396 (40-120 µM) as analyte; BLItz, 25 °C; 50 mM Tris-HCl pH 8.0, 500 mM NaCl, 500 mM KCl, 2 mM β-mercaptoethanol, glycerol 2%, BSA 1 mg/ml; KD estimated from responses 10 s before the end of association, one-site fit. Particulars: both partners purified.

T1 sequence (P0AG24 1-378): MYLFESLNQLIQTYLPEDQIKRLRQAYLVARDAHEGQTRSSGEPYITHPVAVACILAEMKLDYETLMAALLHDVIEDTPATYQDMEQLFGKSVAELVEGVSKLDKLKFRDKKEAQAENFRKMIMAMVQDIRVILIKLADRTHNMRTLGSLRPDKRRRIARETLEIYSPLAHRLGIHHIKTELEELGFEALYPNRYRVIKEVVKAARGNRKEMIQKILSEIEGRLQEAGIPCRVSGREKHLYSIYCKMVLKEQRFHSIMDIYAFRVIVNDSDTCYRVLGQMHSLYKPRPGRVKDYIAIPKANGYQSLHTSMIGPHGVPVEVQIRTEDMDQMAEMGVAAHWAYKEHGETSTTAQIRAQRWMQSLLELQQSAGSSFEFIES

B1: YtfK, purified, biotinylated (natural protein)
chain: not shown
modifications: biotin (EZ-Link NHS-PEG4-Biotin, 1:1 ratio of YtfK and biotin)
notes: YtfK, E. coli; ytfK gene amplified from E. coli chromosomal DNA and cloned in pET28a+-TRX (thioredoxin-6his-tev); the TRX-6His-TEV cassette (NcoI/BamHI) lies upstream of ytfK (BamHI/HindIII), so residues from the TEV site and cloning site may remain at the N-terminus; also called Untagged YtfK; biotinylated YtfK
By Kd is commonly meant a measure of binding affinity in units of concentration. With B1, the Kd was 35 µM.
